The text below walks through data of paper PMC7949091.

For this experiment, the target named is HA-tagged extracellular domain of EspIgR (E. sinensis polymeric immunoglobulin receptor) (E. sinensis).

“Flag-tagged EsVg-DUF1943 domain (domain or fragment)”: the percentage of hemocyte phagocytosis of FITC-labeled S. aureus coated with rEsVg-DUF1943, in vitro, flow cytometry (controls ∼11.39%; with siEspIgR ∼5.57%) was 22.1% and the percentage of hemocyte phagocytosis of FITC-labeled V. parahaemolyticus coated with rEsVg-DUF1943, in vitro, flow cytometry (with siEspIgR ∼6.10%) worked out at 21.5%.
